B1: GTP-binding protein YPT32/YPT11 (Saccharomyces cerevisiae), P51996 (parent)
chain: MSNEDYGYDYDYLFKIVLIGDSGVGKSNLLSRFTTDEFNIESKSTIGVEFATRTIEVENKKIKAQIWDTAGQERYRAITSAYYRGAVGALIVYDISKSSSYENCNHWLTELRENADDNVAVGLIGNKSDLAHLRAVPTDEAKNFAMENQMLFTETSALNSDNVDKAFRELIVAIFQMVSKHQVDLSGSGTNNMGSNGAPKGPTISLTPAPKEDKKKKSSNCC
partner: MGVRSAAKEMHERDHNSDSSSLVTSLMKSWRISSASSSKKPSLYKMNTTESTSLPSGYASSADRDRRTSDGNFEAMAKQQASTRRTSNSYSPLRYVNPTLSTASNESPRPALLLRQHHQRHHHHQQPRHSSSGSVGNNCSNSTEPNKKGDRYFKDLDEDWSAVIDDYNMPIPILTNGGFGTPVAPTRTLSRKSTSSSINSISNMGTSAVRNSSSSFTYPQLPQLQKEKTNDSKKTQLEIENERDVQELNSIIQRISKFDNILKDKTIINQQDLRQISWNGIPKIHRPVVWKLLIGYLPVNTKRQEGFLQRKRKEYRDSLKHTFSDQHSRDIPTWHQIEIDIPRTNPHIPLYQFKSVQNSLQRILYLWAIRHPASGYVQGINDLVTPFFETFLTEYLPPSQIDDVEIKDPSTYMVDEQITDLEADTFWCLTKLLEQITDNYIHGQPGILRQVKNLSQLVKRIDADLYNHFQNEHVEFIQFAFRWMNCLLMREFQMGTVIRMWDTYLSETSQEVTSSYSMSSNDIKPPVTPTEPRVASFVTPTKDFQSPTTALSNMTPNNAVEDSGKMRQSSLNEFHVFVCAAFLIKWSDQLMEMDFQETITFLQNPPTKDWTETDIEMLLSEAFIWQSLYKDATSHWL

Variants of: B1
Conditions: with gyp1_yeast GYP1, Q08484

effect of a mutation on the interaction | Variant
disrupting interaction | MSNEDYGYDYDYLFKIVLIGDSGVGKNNLLSRFTTDEFNIESKSTIGVEFATRTIEVENKKIKAQIWDTAGQERYRAITSAYYRGAVGALIVYDISKSSSYENCNHWLTELRENADDNVAVGLIGNKSDLAHLRAVPTDEAKNFAMENQMLFTETSALNSDNVDKAFRELIVAIFQMVSKHQVDLSGSGTNNMGSNGAPKGPTISLTPAPKEDKKKKSSNCC [S27N]
